Starred links: 1 amine or outer side, 2 acyl side, 3 side chain; linkers in the order of their positions; H or OH if unused. Positions of bridges follow the written chain, without caps; N, C: chain ends. Non-standard residues stand in square brackets, D forms with d. No end group written: not given here. Phe(3R-OH) = O=C([C@@H](N[*:1])[C@H](O[*:3])c1ccccc1)[*:2]; tBuAla = CC(C)(C)C[C@H](N)C(=O)O; Cha = N[C@@H](CC1CCCCC1)C(=O)O; hLeu = CC(C)CC[C@H](N)C(=O)O; 4Amb = NCc1ccc(C(=O)O)cc1; Nle = CCCC[C@H](N)C(=O)O; Aib = CC(C)(N)C(=O)O
B1: [D-Leu24, Ala26, Ile28,31]-PYY(24-36) (peptide)
peptide: [dL]RAYINLITRQRY-NH2
modifications: N-terminus assumed
SMILES: CC[C@H](C)[C@H](NC(=O)[C@H](Cc1ccc(O)cc1)NC(=O)[C@H](C)NC(=O)[C@H](CCCNC(=N)N)NC(=O)[C@H](N)CC(C)C)C(=O)N[C@@H](CC(N)=O)C(=O)N[C@@H](CC(C)C)C(=O)N[C@H](C(=O)N[C@H](C(=O)N[C@@H](CCCNC(=N)N)C(=O)N[C@@H](CCC(N)=O)C(=O)N[C@@H](CCCNC(=N)N)C(=O)N[C@@H](Cc1ccc(O)cc1)C(N)=O)[C@@H](C)O)[C@@H](C)CC
notes: also called compound No. 24
B2: 4-Aminomethylbenzoyl-[Ala26, Nle28, Ile31]-PYY(25-36) (peptide)
peptide: [4Amb]RAY[Nle]NLITRQRY-NH2
modifications: N-terminus assumed
SMILES: CCCC[C@H](NC(=O)[C@H](Cc1ccc(O)cc1)NC(=O)[C@H](C)NC(=O)[C@H](CCCNC(=N)N)NC(=O)c1ccc(CN)cc1)C(=O)N[C@@H](CC(N)=O)C(=O)N[C@@H](CC(C)C)C(=O)N[C@H](C(=O)N[C@H](C(=O)N[C@@H](CCCNC(=N)N)C(=O)N[C@@H](CCC(N)=O)C(=O)N[C@@H](CCCNC(=N)N)C(=O)N[C@@H](Cc1ccc(O)cc1)C(N)=O)[C@@H](C)O)[C@@H](C)CC
notes: also called compound No. 21
B3: Ac-[D-Pro24, Cha27,28, Aib31, threo-PhSer36]-PYY(23-36) (peptide)
peptide: Ac-S[dP]RH[Cha][Cha]NL[Aib]TRQR[Phe(3R-OH)]-NH2
SMILES: CC(=O)N[C@@H](CO)C(=O)N1CCC[C@@H]1C(=O)N[C@@H](CCCNC(=N)N)C(=O)N[C@@H](Cc1c[nH]cn1)C(=O)N[C@@H](CC1CCCCC1)C(=O)N[C@@H](CC1CCCCC1)C(=O)N[C@@H](CC(N)=O)C(=O)N[C@@H](CC(C)C)C(=O)NC(C)(C)C(=O)N[C@H](C(=O)N[C@@H](CCCNC(=N)N)C(=O)N[C@@H](CCC(N)=O)C(=O)N[C@@H](CCCNC(=N)N)C(=O)N[C@H](C(N)=O)[C@H](O)c1ccccc1)[C@@H](C)O
notes: also called compound No. 200
B4: Ac-[D-Pro24, Cha27,28, Aib31, homoLeu36]-PYY(23-36) (peptide)
peptide: Ac-S[dP]RH[Cha][Cha]NL[Aib]TRQR[hLeu]-NH2
SMILES: CC(=O)N[C@@H](CO)C(=O)N1CCC[C@@H]1C(=O)N[C@@H](CCCNC(=N)N)C(=O)N[C@@H](Cc1c[nH]cn1)C(=O)N[C@@H](CC1CCCCC1)C(=O)N[C@@H](CC1CCCCC1)C(=O)N[C@@H](CC(N)=O)C(=O)N[C@@H](CC(C)C)C(=O)NC(C)(C)C(=O)N[C@H](C(=O)N[C@@H](CCCNC(=N)N)C(=O)N[C@@H](CCC(N)=O)C(=O)N[C@@H](CCCNC(=N)N)C(=O)N[C@@H](CCC(C)C)C(N)=O)[C@@H](C)O
notes: also called compound No. 199
B5: Ac-[D-Pro24, Cha27,28, Aib31, Leu(Me)36]-PYY(23-36) (peptide)
peptide: Ac-S[dP]RH[Cha][Cha]NL[Aib]TRQR[tBuAla]-NH2
SMILES: CC(=O)N[C@@H](CO)C(=O)N1CCC[C@@H]1C(=O)N[C@@H](CCCNC(=N)N)C(=O)N[C@@H](Cc1c[nH]cn1)C(=O)N[C@@H](CC1CCCCC1)C(=O)N[C@@H](CC1CCCCC1)C(=O)N[C@@H](CC(N)=O)C(=O)N[C@@H](CC(C)C)C(=O)NC(C)(C)C(=O)N[C@H](C(=O)N[C@@H](CCCNC(=N)N)C(=O)N[C@@H](CCC(N)=O)C(=O)N[C@@H](CCCNC(=N)N)C(=O)N[C@@H](CC(C)(C)C)C(N)=O)[C@@H](C)O
notes: also called compound No. 198
B6: cyclo(28-32)-4-Aminomethylbenzoyl-[Lys28, Ile31, Glu32]-PYY(25-36) (peptide)
peptide: [4Amb]RHYKNLIERQRY-NH2
modifications: lactam 5-9; N-terminus assumed
SMILES: CC[C@H](C)[C@@H]1NC(=O)[C@H](CC(C)C)NC(=O)[C@H](CC(N)=O)NC(=O)[C@@H](NC(=O)[C@H](Cc2ccc(O)cc2)NC(=O)[C@H](Cc2c[nH]cn2)NC(=O)[C@H](CCCNC(=N)N)NC(=O)c2ccc(CN)cc2)CCCCNC(=O)CC[C@@H](C(=O)N[C@@H](CCCNC(=N)N)C(=O)N[C@@H](CCC(N)=O)C(=O)N[C@@H](CCCNC(=N)N)C(=O)N[C@@H](Cc2ccc(O)cc2)C(N)=O)NC1=O
notes: also called compound No. 26
B7: 4-Aminomethylbenzoyl-[Ala26, Trp28, Ile31]-PYY(25-36) (peptide)
peptide: [4Amb]RAYWNLITRQRY-NH2
modifications: N-terminus assumed
SMILES: CC[C@H](C)[C@H](NC(=O)[C@H](CC(C)C)NC(=O)[C@H](CC(N)=O)NC(=O)[C@H](Cc1c[nH]c2ccccc12)NC(=O)[C@H](Cc1ccc(O)cc1)NC(=O)[C@H](C)NC(=O)[C@H](CCCNC(=N)N)NC(=O)c1ccc(CN)cc1)C(=O)N[C@H](C(=O)N[C@@H](CCCNC(=N)N)C(=O)N[C@@H](CCC(N)=O)C(=O)N[C@@H](CCCNC(=N)N)C(=O)N[C@@H](Cc1ccc(O)cc1)C(N)=O)[C@@H](C)O
notes: also called compound No. 23
B8: 4-Aminomethylbenzoyl-[Gly26, Ile28,31]-PYY(25-36) (peptide)
peptide: [4Amb]RGYINLITRQRY-NH2
modifications: N-terminus assumed
SMILES: CC[C@H](C)[C@H](NC(=O)[C@H](Cc1ccc(O)cc1)NC(=O)CNC(=O)[C@H](CCCNC(=N)N)NC(=O)c1ccc(CN)cc1)C(=O)N[C@@H](CC(N)=O)C(=O)N[C@@H](CC(C)C)C(=O)N[C@H](C(=O)N[C@H](C(=O)N[C@@H](CCCNC(=N)N)C(=O)N[C@@H](CCC(N)=O)C(=O)N[C@@H](CCCNC(=N)N)C(=O)N[C@@H](Cc1ccc(O)cc1)C(N)=O)[C@@H](C)O)[C@@H](C)CC
notes: also called compound No. 50
B9: 4-Aminomethylbenzoyl-[Pro26, Ile28,31]-PYY(25-36) (peptide)
peptide: [4Amb]RPYINLITRQRY-NH2
modifications: N-terminus assumed
SMILES: CC[C@H](C)[C@H](NC(=O)[C@H](Cc1ccc(O)cc1)NC(=O)[C@@H]1CCCN1C(=O)[C@H](CCCNC(=N)N)NC(=O)c1ccc(CN)cc1)C(=O)N[C@@H](CC(N)=O)C(=O)N[C@@H](CC(C)C)C(=O)N[C@H](C(=O)N[C@H](C(=O)N[C@@H](CCCNC(=N)N)C(=O)N[C@@H](CCC(N)=O)C(=O)N[C@@H](CCCNC(=N)N)C(=O)N[C@@H](Cc1ccc(O)cc1)C(N)=O)[C@@H](C)O)[C@@H](C)CC
notes: also called compound No. 19
B10: 4-Aminomethylbenzoyl-[Arg26, Ile28,31]-PYY(25-36) (peptide)
peptide: [4Amb]RRYINLITRQRY-NH2
modifications: N-terminus assumed
SMILES: CC[C@H](C)[C@H](NC(=O)[C@H](Cc1ccc(O)cc1)NC(=O)[C@H](CCCNC(=N)N)NC(=O)[C@H](CCCNC(=N)N)NC(=O)c1ccc(CN)cc1)C(=O)N[C@@H](CC(N)=O)C(=O)N[C@@H](CC(C)C)C(=O)N[C@H](C(=O)N[C@H](C(=O)N[C@@H](CCCNC(=N)N)C(=O)N[C@@H](CCC(N)=O)C(=O)N[C@@H](CCCNC(=N)N)C(=O)N[C@@H](Cc1ccc(O)cc1)C(N)=O)[C@@H](C)O)[C@@H](C)CC
notes: also called compound No. 18
B11: cyclo(27-31)-4-Aminomethylbenzoyl-[Glu27, Ile28, Lys31]-PYY(25-36) (peptide)
peptide: [4Amb]RHEINLKTRQRY-NH2
modifications: lactam 4-8; N-terminus assumed
SMILES: CC[C@H](C)[C@@H]1NC(=O)[C@@H](NC(=O)[C@H](Cc2c[nH]cn2)NC(=O)[C@H](CCCNC(=N)N)NC(=O)c2ccc(CN)cc2)CCC(=O)NCCCC[C@@H](C(=O)N[C@H](C(=O)N[C@@H](CCCNC(=N)N)C(=O)N[C@@H](CCC(N)=O)C(=O)N[C@@H](CCCNC(=N)N)C(=O)N[C@@H](Cc2ccc(O)cc2)C(N)=O)[C@@H](C)O)NC(=O)[C@H](CC(C)C)NC(=O)[C@H](CC(N)=O)NC1=O
notes: also called compound No. 25
B12: [D-Arg23, Ala26, Ile28,31]-PYY(23-36) (peptide)
peptide: [dR]LRAYINLITRQRY-NH2
modifications: N-terminus assumed
SMILES: CC[C@H](C)[C@H](NC(=O)[C@H](Cc1ccc(O)cc1)NC(=O)[C@H](C)NC(=O)[C@H](CCCNC(=N)N)NC(=O)[C@H](CC(C)C)NC(=O)[C@H](N)CCCNC(=N)N)C(=O)N[C@@H](CC(N)=O)C(=O)N[C@@H](CC(C)C)C(=O)N[C@H](C(=O)N[C@H](C(=O)N[C@@H](CCCNC(=N)N)C(=O)N[C@@H](CCC(N)=O)C(=O)N[C@@H](CCCNC(=N)N)C(=O)N[C@@H](Cc1ccc(O)cc1)C(N)=O)[C@@H](C)O)[C@@H](C)CC
notes: also called compound No. 27

target: T1, human Y2 receptor (human, UniProt P49146 1-381); assay: cell-based or functional assay
T1 sequence (looked up): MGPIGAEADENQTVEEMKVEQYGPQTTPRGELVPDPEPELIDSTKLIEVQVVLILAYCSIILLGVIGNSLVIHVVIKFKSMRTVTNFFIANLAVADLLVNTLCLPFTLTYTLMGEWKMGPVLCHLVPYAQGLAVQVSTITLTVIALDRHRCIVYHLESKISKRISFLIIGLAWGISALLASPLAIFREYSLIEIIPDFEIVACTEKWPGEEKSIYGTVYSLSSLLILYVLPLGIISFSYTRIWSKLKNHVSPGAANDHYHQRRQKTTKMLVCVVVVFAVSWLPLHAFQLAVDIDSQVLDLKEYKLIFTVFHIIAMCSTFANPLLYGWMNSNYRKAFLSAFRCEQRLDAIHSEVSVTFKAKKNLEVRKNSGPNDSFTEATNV

In order of rising “GBA EC50 Ratio (vs PYY(3-36)), [35S]GTPγS” value:
1. B10  3 ratio
2. B2  3.6 ratio
3. B12  3.6 ratio
4. B8  4.6 ratio
5. B7  5 ratio
6. B5  7.1 ratio
7. B4  8.5 ratio
8. B1  9.4 ratio
9. B3  10 ratio
10. B6  11 ratio
11. {4‑(((imino(octylamino)methyl)amino)methyl)benzoyl}-RAYINLITRQRY-NH2 (also called compound No. 28) [4-({[imino(octylamino)methyl]amino}methyl)benzoyl-[Ala26, Ile28,31]-PYY(25-36)]  12 ratio
12. Ac-FRAYINLITRQRY-NH2 (also called compound No. 34) [Ac-[Phe24, Ala26, Ile28,31]-PYY(24-36)]  14 ratio
13. B11  16 ratio
14. B9  25 ratio
15. Ac-PRAYINLITRQRY-NH2 (also called compound No. 38) [Ac-[Pro24, Ala26, Ile28,31]-PYY(24-36)]  26 ratio

target: T1, human Y2 receptor; assay: RBA: [125I]-PYY displacement, hY2R/CHO membranes
Outline: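 Bound radioligand was collected by filtration on PEI-treated GF/C filters, washed with Tris/MgCl₂/NaCl/CHAPS buffer pH 7.4, and counted by scintillation; IC₅₀ values were calculated.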

In order of falling “IC50 Ratio (vs PYY(3-36))” value:
1. Ac-PRAYINLITRQRY-NH2 (also called compound No. 38) [Ac-[Pro24, Ala26, Ile28,31]-PYY(24-36)]  52 ratio
2. B9  45 ratio
3. B11  30 ratio
4. Ac-FRAYINLITRQRY-NH2 (also called compound No. 34) [Ac-[Phe24, Ala26, Ile28,31]-PYY(24-36)]  25 ratio
5. B4  20 ratio
6. B6  18 ratio
7. B3  16 ratio
8. B1  14 ratio
9. {4‑(((imino(octylamino)methyl)amino)methyl)benzoyl}-RAYINLITRQRY-NH2 (also called compound No. 28) [4-({[imino(octylamino)methyl]amino}methyl)benzoyl-[Ala26, Ile28,31]-PYY(25-36)]  14 ratio
10. B5  12 ratio
11. B8  7.1 ratio
12. B12  4.5 ratio
13. B2  4.1 ratio
14. B10  4 ratio
15. B7  3.4 ratio

Reference: patent publication US20120172293A1 (Takeda / Millennium, published 2012)
